Assay results: patent US20020068323A1 (Amgen, published 2002)

Tests used:
murine IL-7Rα = molecular target: T1, murine IL-7Rα (murine, UniProt P16872 21-459); assay: affinity labeling, DSS cross-linking, transfected 293 cells, SDS-PAGE
T1 construct: whole, on cells; Expressed alone on transiently transfected 293 cells; also called murine IL-7Rα alone
T1 sequence (looked up): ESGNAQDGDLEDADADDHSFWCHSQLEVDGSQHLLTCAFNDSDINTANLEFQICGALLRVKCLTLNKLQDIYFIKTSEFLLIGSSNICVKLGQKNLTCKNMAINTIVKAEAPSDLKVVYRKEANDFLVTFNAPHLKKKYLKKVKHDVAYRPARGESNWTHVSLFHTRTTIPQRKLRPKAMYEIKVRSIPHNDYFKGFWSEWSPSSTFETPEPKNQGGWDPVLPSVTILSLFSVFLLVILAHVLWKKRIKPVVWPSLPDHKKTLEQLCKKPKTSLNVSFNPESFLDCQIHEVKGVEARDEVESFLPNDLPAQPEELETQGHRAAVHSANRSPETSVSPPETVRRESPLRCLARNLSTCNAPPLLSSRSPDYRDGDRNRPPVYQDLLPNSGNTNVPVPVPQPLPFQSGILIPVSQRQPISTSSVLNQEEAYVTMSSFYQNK
Protocol: The binding of TSLP to TSLPR polypeptide in the presence of IL-7Rα was examined in affinity labeling assays. Affinity labeling assays were performed by adding 1-5 nM of ¹²⁵I-labeled TSLP to 5×10⁶ 293 cells transfected with expression constructs for murine IL-7Rα, murine TSLPR polypeptide, murine IL-7Rα and murine TSLPR polypeptide, or human IL-7Rα and murine TSLPR polypeptide. Iodinated TSLP was prepared by adding IODO-GEN (Pierce, Rockford, Ill.) and 2 mCi¹²⁵I to 1 μg of TSLP. A specific activity of approximately 200-300 μCi/μg was obtained by this method. Prior to affinity labeling, 293 cells were transiently transfected using the calcium phosphate method (Eppendorf-5 Prime, Boulder, Colo.). Following a 2 hour incubation with ¹²⁵I-TSLP, cells were cross-linked with 0.1 mg/ml disuccinimidyl suberate (Pierce), lysed in lysis buffer, and the lysates resolved by SDS-PAGE.

[1] = molecular target: T2, heterodimer of murine IL-7Rα and murine TSLPR polypeptide (murine, UniProt P16872 21-459); assay: displacement binding assay on transfected 293 cells, Scatchard transformation (LIGAND program)
T2 construct: whole, on cells; Both chains co-expressed on transiently transfected 293 cells; also called IL-7Rα/TSLPR polypeptide heterodimer; cells expressing TSLPR polypeptide and IL-7Rα
T2 sequence (P16872 whole entry, looked up): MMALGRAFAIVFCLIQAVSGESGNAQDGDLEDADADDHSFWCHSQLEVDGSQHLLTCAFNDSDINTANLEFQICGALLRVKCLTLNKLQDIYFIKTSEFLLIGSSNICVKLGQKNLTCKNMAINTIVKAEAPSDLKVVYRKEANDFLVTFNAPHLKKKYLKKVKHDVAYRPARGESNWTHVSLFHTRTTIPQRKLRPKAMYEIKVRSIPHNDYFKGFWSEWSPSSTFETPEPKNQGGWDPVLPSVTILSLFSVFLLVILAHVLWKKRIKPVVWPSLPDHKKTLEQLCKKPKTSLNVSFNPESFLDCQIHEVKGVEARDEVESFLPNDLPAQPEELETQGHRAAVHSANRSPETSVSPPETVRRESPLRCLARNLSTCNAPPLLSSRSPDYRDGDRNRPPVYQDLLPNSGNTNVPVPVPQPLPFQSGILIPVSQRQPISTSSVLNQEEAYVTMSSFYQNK
T2 sequence (Q8CII9 whole entry, looked up): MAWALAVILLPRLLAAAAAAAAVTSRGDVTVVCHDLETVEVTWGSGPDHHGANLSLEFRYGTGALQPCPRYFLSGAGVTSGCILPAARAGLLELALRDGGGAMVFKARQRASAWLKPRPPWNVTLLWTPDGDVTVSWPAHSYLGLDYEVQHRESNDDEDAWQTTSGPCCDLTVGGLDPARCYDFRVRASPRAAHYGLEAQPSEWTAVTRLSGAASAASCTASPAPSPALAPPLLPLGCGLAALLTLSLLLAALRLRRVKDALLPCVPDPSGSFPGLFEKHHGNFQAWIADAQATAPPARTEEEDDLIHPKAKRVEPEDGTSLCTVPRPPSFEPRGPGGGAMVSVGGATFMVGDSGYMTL
Protocol: (§1) The binding of TSLP to 293 cells transfected with murine IL-7Rα and murine TSLPR polypeptide, or murine IL-7Rα alone, was analyzed in a displacement binding assay. Following two washes, 1×10⁶ transfected 293 cells were incubated in a constant amount of ¹²⁵I-labeled TSLP (approximately 20,000 cpm) and varying amounts of unlabeled TSLP. Following a 3 hour incubation, treated cells were separated from the medium by centrifugation in olive oil and N-butylphthalate. Cell-bound radioactivity was measured using a gamma counter.
(§2) Analysis of binding data by Scatchard transformation was performed using the LIGAND computer program (Munson and Rodbard, 1980, Anal. Biochem. 107:220-39). […] Due to the very low binding activity of TSLP for cells expressing […], it was not possible to determine the Kd for these cells. Displacement binding assays were also performed using NAG8/7 cells, which constitutively express TSLP receptors and proliferate in response to TSLP (Friend et al., supra; Levin et al., supra). In these displacement binding assays, 5×10⁶ NAG8/7 cells were incubated in a constant amount of ¹²⁵I-labeled TSLP (approximately 180,000 cpm) and varying amounts of unlabeled TSLP. The remainder of the assay was performed as described herein.

[2] = molecular target: T3, TSLP receptors constitutively expressed on NAG8/7 cells; assay: displacement binding assay with ^125I-TSLP and unlabeled TSLP on NAG8/7 cells, Scatchard transformation
T3 construct: also called single class of receptors
Protocol: as §1, §2

B1: Thymic stromal lymphopoietin (TSLP) (ligand, UniProt Q9JIE6 20-140, looked up)
chain: YNFSNCNFTSITKIYCNIIFHDLTGDLKGAKFEQIEDCESKPACLLKIEYYTLNPIPGCPSLPDKTFARRTREALNDHCPGYPETERNDGTQEMAQEVQNICLNQTSQILRLWYSFMQSPE
Q: Does B1 bind (murine IL-7Rα)?
A: no binding (tested: 1-5 nM of ^125I-labeled TSLP)

Q: And the Kd [1]?
A: ~13 nM

Q: What about the Kd [2] of the same binder?
A: ~2.2 nM
